These results are taken from PMC11582626 (Nature Communications, 2024).

Experiment [1] has as its target RSV A2 prefusion-stabilized F glycoprotein variant DS-Cav1 (respiratory syncytial virus strain A2). Briefly: cryo-EM structure.
Experiment [2] has as its target h5B11-YTE, h5B11 with the YTE mutation (M252Y/S254T/T256E) in the Fc region (human). Kind of experiment: SPR. (Surface plasmon resonance follows binding to a sensor surface in real time, without labels.)
Experiment [3] deals with RSV B18537 prefusion-stabilized F glycoprotein variant sc9-10 DS-Cav1 (respiratory syncytial virus strain B18537). Kind of experiment: cryo-EM structure.
Experiment [4] deals with T1, RSV B18537 prefusion-stabilized F glycoprotein variant DS-Cav1 (Human respiratory syncytial virus B, …, stabilised).
T1 chain 1: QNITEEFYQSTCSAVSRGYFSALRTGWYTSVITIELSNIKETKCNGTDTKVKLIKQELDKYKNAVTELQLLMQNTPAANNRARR
T1 chain 2: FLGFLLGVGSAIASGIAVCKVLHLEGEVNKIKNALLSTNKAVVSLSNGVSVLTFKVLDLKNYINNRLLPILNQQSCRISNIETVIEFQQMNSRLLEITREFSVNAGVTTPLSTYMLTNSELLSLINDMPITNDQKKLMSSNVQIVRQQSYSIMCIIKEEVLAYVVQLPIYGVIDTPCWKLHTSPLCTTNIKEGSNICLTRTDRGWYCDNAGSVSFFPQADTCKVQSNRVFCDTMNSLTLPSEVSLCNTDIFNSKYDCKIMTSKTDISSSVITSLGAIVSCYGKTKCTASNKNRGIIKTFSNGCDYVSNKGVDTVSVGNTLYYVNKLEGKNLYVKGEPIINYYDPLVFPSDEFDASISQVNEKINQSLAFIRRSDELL
Kind of experiment: SPR.

The target in experiment [5] is RSV B18537 post-fusion F protein (Human respiratory syncytial virus B, …, UniProt P13843). Briefly: ELISA. For orientation: In an ELISA, binding on a coated surface is turned into a signal by an enzyme label.
For experiment [6], the target named is RSV A2 post-fusion F protein (Human respiratory syncytial virus A, …, UniProt P03420). Briefly: ELISA.
In experiment [7] the target is RSV B18537 prefusion-stabilized F glycoprotein variant DS-Cav1 (respiratory syncytial virus strain B18537).
Experiment [8] shares this target. Kind of experiment: SPR.

Numbering of substitutions follows the chain as printed. A value given as a limit tells only on which side of the number the result lay.

In general, stoichiometry N refers to a count of units in the complex or per binding partner. Broadly, the Kd is the equilibrium constant for the complex coming apart. A low value points to tighter binding.

RSV B18537 post-fusion F protein, sequence (P13843 whole entry, looked up, the tested form may be a part, one chain of several): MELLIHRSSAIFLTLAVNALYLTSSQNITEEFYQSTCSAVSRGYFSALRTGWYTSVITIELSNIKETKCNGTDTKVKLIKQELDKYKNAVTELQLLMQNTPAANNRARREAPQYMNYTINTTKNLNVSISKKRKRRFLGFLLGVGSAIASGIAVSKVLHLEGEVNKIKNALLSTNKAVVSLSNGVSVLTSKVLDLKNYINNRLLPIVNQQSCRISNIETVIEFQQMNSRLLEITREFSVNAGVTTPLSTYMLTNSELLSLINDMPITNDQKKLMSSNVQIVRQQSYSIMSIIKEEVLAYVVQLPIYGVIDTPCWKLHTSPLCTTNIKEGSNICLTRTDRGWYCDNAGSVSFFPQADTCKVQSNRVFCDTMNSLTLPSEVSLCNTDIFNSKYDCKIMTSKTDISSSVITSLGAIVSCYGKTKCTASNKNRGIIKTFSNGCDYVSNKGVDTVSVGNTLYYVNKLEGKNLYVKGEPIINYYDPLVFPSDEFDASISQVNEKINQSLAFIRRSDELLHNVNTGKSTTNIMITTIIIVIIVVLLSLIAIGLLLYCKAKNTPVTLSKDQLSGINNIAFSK
RSV A2 post-fusion F protein, sequence (P03420 whole entry, looked up, the tested form may be a part): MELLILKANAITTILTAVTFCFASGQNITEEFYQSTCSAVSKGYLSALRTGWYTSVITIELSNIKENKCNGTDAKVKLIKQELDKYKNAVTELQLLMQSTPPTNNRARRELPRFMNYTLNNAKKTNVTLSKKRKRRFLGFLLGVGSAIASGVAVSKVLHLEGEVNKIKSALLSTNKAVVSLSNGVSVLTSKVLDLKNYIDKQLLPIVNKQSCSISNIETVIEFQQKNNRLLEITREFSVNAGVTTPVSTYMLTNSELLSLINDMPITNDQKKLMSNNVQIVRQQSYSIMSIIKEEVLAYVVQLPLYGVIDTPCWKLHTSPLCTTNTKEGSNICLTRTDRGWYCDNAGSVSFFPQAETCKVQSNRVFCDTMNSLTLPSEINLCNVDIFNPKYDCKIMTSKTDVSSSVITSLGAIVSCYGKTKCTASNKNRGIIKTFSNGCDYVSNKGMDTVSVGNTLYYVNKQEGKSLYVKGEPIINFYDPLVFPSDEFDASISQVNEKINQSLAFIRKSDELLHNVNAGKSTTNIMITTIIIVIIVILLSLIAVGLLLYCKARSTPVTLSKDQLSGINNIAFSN

Turning to “RSV A2 prefusion-stabilized F glycoprotein variant DS-Cav1 (natural protein)”, in experiment [1], the stoichiometry N is 3.

As for “human neonatal FcR (hFcRn) (from UniProt P55899;P61769) (receptor)”, the fold increase in affinity over h5B11-WT in experiment [2] worked out at 8 fold. “RSV B18537 prefusion-stabilized F glycoprotein variant sc9-10 DS-Cav1 (natural protein)” gave a stoichiometry N in experiment [3] of 3.

B1: 5B11 Fab (antigen-binding fragment of murine 5B11) (Fab, V domains shown)
VH: QIQLVQSGPELKKPGETVKISCKASGYTFTDYSMHWLKQAPGKGLKWMGWITTETGEPTYADDFKGRFAFSLETSASTAYLQINNLKNEDTGIYFCARYYYGPFYWGQGTLVTVST
VL: DIQMTQSPASLSASVGETVTITCRSSGNIHNFLTWYQQKQGKSPQFLVYNAKTLADGVSSRFSGSGSGTQFSLKINSLQPEDFGIYYCQHFWTTPYTFGGGTKLEIK
The molecule B1 displayed a Kd in experiment [4] of 0.124 nM.

B2: h5B11, humanized version of 5B11 (human IgG1, kappa) (antibody, V domains shown)
VH: B1 VH with E16A, T17S, E73D, N84S, N85S, N88A, I93V, T116S
VL: B1 VL with A9S, E17D, T18R, Q40P, S59P, S72T, K74T, N76S, L104V
For the molecule B2, the binding result in experiment [5] and in experiment [6] was “no binding” throughout.

B3: 5B11, murine monoclonal antibody (mouse IgG2a, kappa) (antibody, V domains shown)
VH: B1 VH
VL: B1 VL
With B3, the binding result in experiment [5] and in experiment [6] was “no binding” each time.

B4: nirsevimab (biosimilar, human IgG1, kappa) (antibody, V domains shown)
VH: QVQLVQSGAEVKKPGSSVMVSCQASGGLLEDYIINWVRQAPGQGPEWMGGIIPVLGTVHYGPKFQGRVTITADESTDTAYMELSSLRSEDTAMYYCATETALVVSETYLPHYFDNWGQGTLVTVSS
VL: DIQMTQSPSSLSAAVGDRVTITCQASQDIVNYLNWYQQKPGKAPKLLIYVASNLETGVPSRFSGSGSGTDFSLTISSLQPEDVATYYCQQYDNLPLTFGGGTKVEIK
In experiment [7], B4 returned a plaque reduction neutralization of RSV B18537, IC50 of 0.0285 µg/mL.

B5: nirsevimab Fab (Fab, V domains shown)
VH: B4 VH
VL: B4 VL
Take B5: in experiment [8], the dissociation constant Kd was more than 800 nM.
